From patent publication US20140356376

Columns and labels:
[1] = system: thio-S4497 HC v1-MP-LAFG-PABC-(piperazinoBOR) AAC-193
[2] = system: thioFAB 4497 MP-LAFAA-QSY7
[3] = system: thioFAB 4497 MP-LAFGA-QSY7

staphopain B
100%: Percent cleavage pH 5 [1] | Percent cleavage pH 7.2 [1] | Percent cleavage pH 7.2 [2] | Percent cleavage pH 7.2 [3]
